Source: publication PMC7379511

Biological target: feline interleukin-31 (fIL-31) displayed on the yeast surface (pETconNK_fIL-31) (feline)
Assay: flow cytometry on cells

- Kd: 10.3 nM
- percent decrease of the binding of biotinylated fIL31RA-1FNIII: 65%
- percent decrease of the binding of biotinylated fOSMR-ECD (itself): 97%
Substance: soluble feline oncostatin M receptor extracellular domain, Fc fusion (fOSMR-ECD)
